Experimental data taken from PMC10752894, “Structural basis for DNA proofreading” (Nature Communications, 2023).

B1: DNA20sA/DNA20TS (Complex ONE) (dsDNA)
DNA 1: GAAGACAGTCTGCGGCGCGA
DNA 2: ACACACGCGCGCCGCAGACTGTCTTC
modifications: phosphorothioate before the 3'-terminal A of the primer (racemic)
B2: human mitochondrial DNA polymerase Gamma accessory subunit Polγ_B (residues 26–485) (natural protein, UniProt Q9UHN1 26-485, looked up)
chain: DAGQPELLTERSSPKGGHVKSHAELEGNGEHPEAPGSGEGSEALLEICQRRHFLSGSKQQLSRDSLLSGCHPGFGPLGVELRKNLAAEWWTSVVVFREQVFPVDALHHKPGPLLPGDSAFRLVSAETLREILQDKELSKEQLVAFLENVLKTSGKLRENLLHGALEHYVNCLDLVNKRLPYGLAQIGVCFHPVFDTKQIRNGVKSIGEKTEASLVWFTPPRTSNQWLDFWLRHRLQWWRKFAMSPSNFSSSDCQDEEGRKGNKLYYNFPWGKELIETLWNLGDHELLHMYPGNVSKLHGRDGRKNVVPCVLSVNGDLDRGMLAYLYDSFQLTENSFTRKKNLHRKVLKLHPCLAPIKVALDVGRGPTLELRQVCQGLFNELLENGISVWPGYLETMQSSLEQLYSKYDEMSILFTVLVTETTLENGLIHLRSRDTTMKEMMHISKLKDFLIKYISSAKNV
notes: human DNA polymerase gamma accessory subunit Polγ_B, residues 26-485; It is a homodimer in the holoenzyme, with a proximal copy Polγ_B1 and a distal copy Polγ_B2; also called Polγ_B homodimer; Polγ_B1; source: E. coli BL21-CodonPlus (DE3)-RIPL, purified (Ni-NTA, HiTrap heparin)

Tests used:
[1] = biological target: Polγ holoenzyme, cryo-EM Complex ONE (Homo sapiens, UniProt P54098;Q9UHN1 26-1239;26-485); experiment: cryo-EM; Complex ONE class 1; EMSA: 40 mM Tris-HCl pH 7.9, 60 mM NaCl, 10 mM MgCl2, 5% glycerol, 20 mM 2-mercaptoethanol, 0.1 mg/ml BSA, 150 nM Cy3 scaffold, 10 min room temperature; 0.5% agarose, 0.5X TBE, 4 °C; conditions: protein: recombinant; tags: N-terminal His (both subunits); copies: 1;2; primer-template, 6 nt 5' template overhang, 3'-terminal A mismatched with G
[2] = biological target: the molecule itself; experiment: cryo-EM structure; Complex ONE: 2 μM WT Polγ holoenzyme with the DNA20*A/DNA20_TS scaffold (phosphorothioate mismatched primer), 10 mM Tris-HCl pH 7.9, 100 mM NaCl, 10 mM DTT, 2 mM MgCl2. Complex THREE: the same with the hydrolyzable DNA20A primer. Gives Structures I, II, VII, VIII, IX

Polγ holoenzyme, cryo-EM Complex ONE, sequence (P54098 26-1239, one chain of several): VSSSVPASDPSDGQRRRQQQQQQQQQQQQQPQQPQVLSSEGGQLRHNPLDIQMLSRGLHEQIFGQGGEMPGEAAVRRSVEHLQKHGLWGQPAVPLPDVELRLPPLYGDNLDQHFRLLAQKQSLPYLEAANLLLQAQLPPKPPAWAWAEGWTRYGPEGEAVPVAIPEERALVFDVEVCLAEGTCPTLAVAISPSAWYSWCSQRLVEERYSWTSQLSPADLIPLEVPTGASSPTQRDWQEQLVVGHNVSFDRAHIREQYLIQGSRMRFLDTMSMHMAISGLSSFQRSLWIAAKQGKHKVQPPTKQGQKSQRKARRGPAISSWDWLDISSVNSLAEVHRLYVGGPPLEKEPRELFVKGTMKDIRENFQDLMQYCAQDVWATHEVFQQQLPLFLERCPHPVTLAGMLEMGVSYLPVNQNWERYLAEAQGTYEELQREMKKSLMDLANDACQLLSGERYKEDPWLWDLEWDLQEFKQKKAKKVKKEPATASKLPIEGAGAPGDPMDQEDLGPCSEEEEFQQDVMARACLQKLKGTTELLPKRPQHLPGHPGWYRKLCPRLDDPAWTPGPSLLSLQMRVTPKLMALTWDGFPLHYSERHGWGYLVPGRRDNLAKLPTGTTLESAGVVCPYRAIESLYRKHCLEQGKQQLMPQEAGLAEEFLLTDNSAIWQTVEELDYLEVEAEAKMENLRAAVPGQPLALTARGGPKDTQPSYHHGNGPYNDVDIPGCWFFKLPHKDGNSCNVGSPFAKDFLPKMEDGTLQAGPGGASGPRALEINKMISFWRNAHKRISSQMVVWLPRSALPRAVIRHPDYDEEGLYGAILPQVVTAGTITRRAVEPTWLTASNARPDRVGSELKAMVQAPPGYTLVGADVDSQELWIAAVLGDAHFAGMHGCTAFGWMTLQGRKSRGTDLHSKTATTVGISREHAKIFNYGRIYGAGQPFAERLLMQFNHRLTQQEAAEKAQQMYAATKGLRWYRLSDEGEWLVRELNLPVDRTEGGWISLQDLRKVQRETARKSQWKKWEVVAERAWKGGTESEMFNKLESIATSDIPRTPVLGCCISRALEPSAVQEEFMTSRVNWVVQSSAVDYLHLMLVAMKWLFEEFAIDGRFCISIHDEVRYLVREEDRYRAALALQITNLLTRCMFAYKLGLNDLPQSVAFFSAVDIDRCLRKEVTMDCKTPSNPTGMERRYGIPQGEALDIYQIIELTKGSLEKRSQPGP

Row | Binder | binding result [1] | binding result [2]
1 | B1 | binds | –
2 | B2 | – | binds
